Measurements as given in US20170240635A1 (AGENCY FOR SCIENCE TECHNOLOGY AND RESEARCH, published 2017).
Values belong to the binder of their own block, whether it stands above or below them.

How the values were obtained:
[1] = biological target: T1, human PD-1 coupled to human Fc (human, UniProt Q15116 25-167, limits assumed); assay: SPR (ProteOn XPR36); human PD-1-Fc immobilised, crude Fab extract flown over
T1 construct: also called human-PD-1 coupled to Fc; not shown: human Fc
Procedure: Briefly, human or mouse PD-1 coupled to human Fc was immobilised on a sensor chip compatible with the Proteon XPR36 bioanalyser (Biorad). Crude Fab extracts (or the control antibodies) were then flown onto the chip and the association/dissociation of each candidate Fab was then recorded and analysed, the affinity (KD) was calculated.

hCTLA4-Fc = biological target: T2, hCTLA4-Fc (human, UniProt P16410); assay: ELISA; antigen coated 350 ng/well, goat anti-human Fab-HRP, absorbance 450-670 nm
T2 construct: also called human CTLA-4; human CTLA4
Procedure: (§1) Anti-PD-1 antibodies were tested in an ELISA assay for their ability to bind to other members of the CD28 family.
(§2) Briefly, ELISA plates were coated with 350 ng/well of one of the following antigens coupled to human Fc in carbonate buffer: human PD-1, human PD-L1, human TIM-3, human LAG-3, human ICOS, human CTLA4, human BTLA, human CD28, mouse TIM-3, or rhesus PD-1. The plate was then blocked with a solution of casein. After extensive washes in PBS Tween-20, antibodies were added into the ELISA wells in the presence of 7% milk in PBS. After 90 minutes at room temperature under agitation and extensive washes, a goat anti-human Fab antibody coupled to HRP was added. One hour later, plates were washed and TMB substrate added. The reaction was stopped with 1M HCl and optical density measured at 450 nm with a reference at 670 nm.

hICOS-Fc = biological target: T3, hICOS-Fc (human, UniProt Q9Y6W8); assay: as above
T3 construct: also called human ICOS
T3 sequence (antigen, looked up): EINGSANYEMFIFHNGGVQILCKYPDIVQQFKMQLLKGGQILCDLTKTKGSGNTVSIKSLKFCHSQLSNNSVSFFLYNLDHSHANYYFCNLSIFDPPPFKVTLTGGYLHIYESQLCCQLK
Procedure: as §1, §2

mTim3-Fc = biological target: T4, mTim3-Fc (mouse, UniProt Q8VIM0); assay: as above
T4 construct: also called mouse TIM-3
Procedure: as §1, §2

[2] = biological target: T5, human PD-L1 coupled to human Fc (human, UniProt Q9NZQ7 19-239, limits assumed); assay: as above
T5 construct: ELISA coating antigen; not shown: human Fc
Procedure: as §1, §2

[3] = biological target: T6, human TIM-3 coupled to human Fc (human, UniProt Q8TDQ0 22-200, limits assumed); assay: as above
T6 construct: not shown: human Fc
Procedure: as §1, §2

[4] = biological target: T7, human LAG-3 coupled to human Fc (human, UniProt P18627 23-450, limits assumed); assay: as above
T7 construct: ELISA coating antigen; not shown: human Fc
T7 sequence (looked up): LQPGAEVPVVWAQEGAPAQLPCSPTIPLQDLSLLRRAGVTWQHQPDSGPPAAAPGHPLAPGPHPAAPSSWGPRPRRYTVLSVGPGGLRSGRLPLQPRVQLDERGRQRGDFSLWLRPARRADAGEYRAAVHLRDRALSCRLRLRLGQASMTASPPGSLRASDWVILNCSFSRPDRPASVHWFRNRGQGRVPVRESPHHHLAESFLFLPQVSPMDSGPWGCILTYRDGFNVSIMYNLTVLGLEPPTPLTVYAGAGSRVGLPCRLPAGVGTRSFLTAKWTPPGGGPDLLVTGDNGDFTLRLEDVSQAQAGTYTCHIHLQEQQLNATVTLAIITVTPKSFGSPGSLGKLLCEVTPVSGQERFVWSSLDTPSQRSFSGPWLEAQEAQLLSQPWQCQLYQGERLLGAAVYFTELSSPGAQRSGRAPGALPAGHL
Procedure: as §1, §2

[5] = biological target: T8, human BTLA coupled to human Fc (human, UniProt Q7Z6A9 31-150, limits assumed); assay: as above
T8 construct: ELISA coating antigen; not shown: human Fc
Procedure: as §1, §2

[6] = biological target: T9, human CD28 coupled to human Fc (human, UniProt P10747 19-152, limits assumed); assay: as above
T9 construct: ELISA coating antigen; not shown: human Fc
Procedure: as §1, §2

[7] = biological target: T10, PD-1 on exhausted human T cells (human, UniProt Q15116 25-288); assay: flow cytometry (MFI); IgG4 on human T cells activated 7 days with allogeneic DCs, fluorescent secondary antibody
T10 construct: whole, on cells; T cells exhausted by 7 days of culture with allogeneic monocyte-derived dendritic cells
Procedure: 50,000 T cells isolated from a healthy donor were incubated in the presence of 5,000 monocyte-derived DCs from another donor for 7 days at 37° C. Antibodies, expressed as IgG4, were incubated with such activated T cells for 30 minutes in PBS. After a wash in PBS, a fluorescent labelled secondary antibody was added for 30 minutes and then washed in PBS. Cells were resuspended in FACS buffer and binding of the antibody to the cells was monitored by flow cytometry (FIGS. 6 and 7).

T4 sequence (Q8VIM0 20-191 limits assumed): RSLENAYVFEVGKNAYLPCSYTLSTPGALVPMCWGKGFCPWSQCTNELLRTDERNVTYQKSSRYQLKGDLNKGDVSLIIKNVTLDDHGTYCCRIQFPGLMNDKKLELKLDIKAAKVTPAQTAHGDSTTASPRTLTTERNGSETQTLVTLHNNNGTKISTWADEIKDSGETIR
T10 sequence (Q15116 25-288): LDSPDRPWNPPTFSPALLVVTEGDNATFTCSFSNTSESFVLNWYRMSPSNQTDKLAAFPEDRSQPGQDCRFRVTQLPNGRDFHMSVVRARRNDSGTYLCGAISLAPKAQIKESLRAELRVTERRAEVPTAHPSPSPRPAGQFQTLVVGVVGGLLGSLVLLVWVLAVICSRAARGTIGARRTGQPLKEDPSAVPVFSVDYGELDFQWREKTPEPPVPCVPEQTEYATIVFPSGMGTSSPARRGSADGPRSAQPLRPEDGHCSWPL
T2 sequence (P16410 37-162 limits assumed): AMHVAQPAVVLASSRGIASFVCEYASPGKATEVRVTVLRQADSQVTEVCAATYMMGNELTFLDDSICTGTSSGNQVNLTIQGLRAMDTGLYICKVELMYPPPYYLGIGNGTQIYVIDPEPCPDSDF
T5 sequence (Q9NZQ7 19-239 limits assumed): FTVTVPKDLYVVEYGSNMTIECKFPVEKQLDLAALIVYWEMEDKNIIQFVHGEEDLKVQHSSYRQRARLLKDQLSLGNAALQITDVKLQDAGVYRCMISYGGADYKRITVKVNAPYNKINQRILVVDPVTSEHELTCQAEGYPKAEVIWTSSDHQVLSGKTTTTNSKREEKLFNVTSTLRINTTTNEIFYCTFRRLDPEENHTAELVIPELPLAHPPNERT
T8 sequence (Q7Z6A9 31-150 limits assumed): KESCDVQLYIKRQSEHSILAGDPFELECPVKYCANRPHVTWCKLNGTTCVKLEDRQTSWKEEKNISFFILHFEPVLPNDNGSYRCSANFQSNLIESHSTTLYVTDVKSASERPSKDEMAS
T1 sequence (Q15116 25-167 limits assumed): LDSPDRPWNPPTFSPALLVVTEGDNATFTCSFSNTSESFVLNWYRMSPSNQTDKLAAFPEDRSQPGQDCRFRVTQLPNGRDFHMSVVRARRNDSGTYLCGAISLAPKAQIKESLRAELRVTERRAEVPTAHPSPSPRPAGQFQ

B1: anti-PD-1 antibody clone G2 (Fab) (Fab, V domains shown)
VH: QVQLVESGGGVVQPGRSLRLSCAASGFTFSSYGMHWVRQAPGKGLEWVAVISYDGSNKYYADSVKGRFTISRDNSKNTLYLQMNSLRAEDTAVYYCASDLGAGPYYYGMDVWGQGTTVTVSS
VL: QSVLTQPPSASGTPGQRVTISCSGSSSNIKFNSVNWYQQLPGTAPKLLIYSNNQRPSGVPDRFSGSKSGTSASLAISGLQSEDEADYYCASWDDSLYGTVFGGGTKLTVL
notes: Crude Fab extract in SPR
- Kd [1]: 0.1 nM
- binding result (hCTLA4-Fc): no binding (tested: not given)
- binding result (hICOS-Fc): no binding (tested: not given)
- binding result (mTim3-Fc): no binding (tested: not given)
- binding result [2]: no binding (tested: not given)
- binding result [3]: no binding (tested: not given)
- binding result [4]: no binding (tested: not given)
- binding result [5]: no binding (tested: not given)
- binding result [6]: no binding (tested: not given)

B2: G2 (antibody, IgG4, V domains shown)
VH: QVQLVESGGGVVQPGRSLRLSCAASGFTFSSYGMHWVRQAPGKGLEWVAVISYDGSNKYYADSVKGRFTISRDNSKNTLYLQMNSLRAEDTAVYYCASDLGAGPYYYGMDVWGQGTTVTVSS
VL: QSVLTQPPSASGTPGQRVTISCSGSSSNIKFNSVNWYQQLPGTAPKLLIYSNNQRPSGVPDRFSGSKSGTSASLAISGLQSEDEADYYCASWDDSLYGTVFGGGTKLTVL
notes: also called anti-PD-1 antibody clone G2 (human IgG4)
- EC50 [7]: 0.78 nM

B8: anti-PD-1 antibody clone A10 (Fab) (Fab, V domains shown)
VH: QVQLVQSGGGVVQPGRSLRLSCAASGFTFSSYGMHWVRQAPGKGLEWVAVISYDGSNKYYADSVKGRFTISRDNSKNTLYLQMNSLRAEDTAVYYCASDLGAGPYYYGKDVWGQGTTVTVSS
VL: LPVLTQPPSASGTPGQRVTISCSGSSSNIKFNSVNWYQQLPGTAPKLLIYSNNQRPSGVPDRFSGSKSGTSASLAISGLQSEDEADYFCASWDDYYYGTIFGGGTKLTVL
notes: Crude Fab extract in SPR
- Kd [1]: 0.08 nM
- binding result (hCTLA4-Fc): no binding (tested: not given)
- binding result (hICOS-Fc): no binding (tested: not given)
- binding result (mTim3-Fc): no binding (tested: not given)
- binding result [2]: no binding (tested: not given)
- binding result [3]: no binding (tested: not given)
- binding result [4]: no binding (tested: not given)
- binding result [5]: no binding (tested: not given)
- binding result [6]: no binding (tested: not given)

B9: anti-PD-1 antibody clone H9 (Fab) (Fab, V domains shown)
VH: QVQLVESGGGVVQPGRSLRLSCAASGFTFSSYGMHWVRQAPGKGLEWVAVISYDGSNKYYADSVKGRFTISRDNSKNTLYLQMNSLRAEDTAVYYCASDLGAGPYYYGMDVWGQGTTVTVSS
VL: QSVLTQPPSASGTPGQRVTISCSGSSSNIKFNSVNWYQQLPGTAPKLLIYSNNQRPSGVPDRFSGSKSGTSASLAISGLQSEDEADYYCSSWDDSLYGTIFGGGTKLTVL
notes: Crude Fab extract in SPR
- binding result (hCTLA4-Fc): no binding (tested: not given)
- binding result (hICOS-Fc): no binding (tested: not given)
- binding result (mTim3-Fc): no binding (tested: not given)
- binding result [2]: no binding (tested: not given)
- binding result [3]: no binding (tested: not given)
- binding result [4]: no binding (tested: not given)
- binding result [5]: no binding (tested: not given)
- binding result [6]: no binding (tested: not given)

B11: G1 (antibody, IgG4, V domains shown)
VH: QVQLVESGGGVVQPGRSLRLSCAASGFTFSSYGMHWVRQAPGKGLEWVAVISYDGSNKYYADSVKGRFTISRDNSKNTLYLQMNSLRAEDTAVYYCASDLGAGPYYYGMDVWGQGTTVTVSS
VL: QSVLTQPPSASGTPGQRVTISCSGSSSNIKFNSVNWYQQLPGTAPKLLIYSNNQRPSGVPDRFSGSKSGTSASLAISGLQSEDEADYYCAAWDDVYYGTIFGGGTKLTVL
notes: also called anti-PD-1 antibody clone G1 (human IgG4)
- EC50 [7]: 0.738 nM

B13: B6 (antibody, IgG4, V domains shown)
VH: QVQLVESGGGVVQPGRSLRLSCAASGFTFSSYGMHWVRQAPGKGLEWVAVISYDGSNKYYADSVKGRFTISRDNSKNTLYLQMNSLRAEDTAVYYCASDYGAGPYYYGMDVWGQGTTVTVSS
VL: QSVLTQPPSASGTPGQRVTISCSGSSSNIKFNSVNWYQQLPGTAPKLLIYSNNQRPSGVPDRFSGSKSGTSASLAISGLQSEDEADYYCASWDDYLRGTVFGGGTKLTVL
notes: also called anti-PD-1 antibody clone B6 (human IgG4)
- EC50 [7]: 0.158 nM

Further lines, results first:

- EC50 [7]: 0.375 nM
B3: H9 (antibody, IgG4, V domains shown)
VH: QVQLVESGGGVVQPGRSLRLSCAASGFTFSSYGMHWVRQAPGKGLEWVAVISYDGSNKYYADSVKGRFTISRDNSKNTLYLQMNSLRAEDTAVYYCASDLGAGPYYYGMDVWGQGTTVTVSS
VL: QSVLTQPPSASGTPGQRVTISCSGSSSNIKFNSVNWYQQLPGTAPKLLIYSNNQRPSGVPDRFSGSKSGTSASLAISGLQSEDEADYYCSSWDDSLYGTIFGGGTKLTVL
notes: also called anti-PD-1 antibody clone H9 (human IgG4)

- EC50 [7]: 0.446 nM
B4: F2 (antibody, IgG4, V domains shown)
VH: QVQLVESGGGVVQPGRSLRLSCAASGFTFSSYGMHWVRQAPGKGLEWVAVISYDGSNKYYADSVKGRFTISRDNSKNTLYLQMNSLRAEDTAVYYCASDLGAGPYYYGMDVWGQGTTVTVSS
VL: QSVLTQPPSASGTPGQRVTISCSGSSSNIKFNSVNWYQQLPGTAPKLLIYSNNQRPSGVPDRFSGSKSGTSASLAISGLQSEDEADYYCSSWDDDARGTIFGGGTKLTVL
notes: also called anti-PD-1 antibody clone F2 (human IgG4)

- EC50 [7]: 0.281 nM
B5: C4 (antibody, IgG4, V domains shown)
VH: QVQLVESGGGVVQPGRSLRLSCAASGFTFSSYGMHWVRQAPGKGLEWVAVISYDGSNKYYADSVKGRFTISRDNSKNTLYLQMNSLRAEDTAVYYCASDLGAGPYYYGLDVWGQGTTVTVSS
VL: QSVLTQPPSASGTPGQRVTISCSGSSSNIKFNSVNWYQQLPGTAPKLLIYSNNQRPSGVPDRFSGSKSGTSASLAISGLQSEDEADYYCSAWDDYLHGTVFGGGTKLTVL
notes: also called anti-PD-1 antibody clone C4 (human IgG4)

- EC50 [7]: 0.532 nM
B6: G10 (antibody, IgG4, V domains shown)
VH: QVQLVESGGGVVQPGRSLRLSCAASGFTFSSYGMHWVRQAPGKGLEWVAVISYDGSNKYYADSVKGRFTISRDNSKNTLYLQMNSLRAEDTAVYYCASDYGAGPYYYGMDVWGQGTTVTVSS
VL: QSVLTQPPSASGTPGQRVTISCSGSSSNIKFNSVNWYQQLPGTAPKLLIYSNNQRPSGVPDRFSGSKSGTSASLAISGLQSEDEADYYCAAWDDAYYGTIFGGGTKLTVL
notes: also called anti-PD-1 antibody clone G10 (human IgG4)

- EC50 [7]: 0.542 nM
B7: E1 (antibody, IgG4, V domains shown)
VH: QVQLVESGGGVVQPGRSLRLSCAASGFTFSSYGMHWVRQAPGKGLEWVAVISYDGSNKYYADSVKGRFTISRDNSKNTLYLQMNSLRAEDTAVYYCASDLGAGPYYYGMDVWGQGTTVTVSS
VL: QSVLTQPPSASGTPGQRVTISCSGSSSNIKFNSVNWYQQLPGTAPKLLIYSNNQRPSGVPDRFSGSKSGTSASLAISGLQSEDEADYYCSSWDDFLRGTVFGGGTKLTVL
notes: also called anti-PD-1 antibody clone E1 (human IgG4)

- Kd [1]: 0.2 nM
- binding result (hCTLA4-Fc): no binding (tested: not given)
- binding result (hICOS-Fc): no binding (tested: not given)
- binding result (mTim3-Fc): no binding (tested: not given)
- binding result [2]: no binding (tested: not given)
- binding result [3]: no binding (tested: not given)
- binding result [4]: no binding (tested: not given)
- binding result [5]: no binding (tested: not given)
- binding result [6]: no binding (tested: not given)
B10: anti-PD-1 antibody clone A3 (Fab) (Fab, V domains shown)
VH: QVQLVQSGGGVVQPGRSLRLSCAASGFTFSSYGMHWVRQAPGKGLEWVAVISYDGSNKYYADSVKGRFTISRDNSKNTLYLQMNSLRAEDTAVYYCASDLGAGPYYYGKDHWGQGTTVTVSS
VL: LPVLTQPPSASGTPGQRVTISCSGSSSNIKFNSVNWYQQLPGTAPKLLIYSNNQRPSGVPDRFSGSKSGTSASLAISGLQSEDEADYFCASWDDVLYGSVFGGGTKLTVL
notes: Flown as crude Fab extract in SPR

- EC50 [7]: 0.318 nM
B12: D4 (antibody, IgG4, V domains shown)
VH: QVQLVESGGGVVQPGRSLRLSCAASGFTFSSYGMHWVRQAPGKGLEWVAVISYDGSNKYYADSVKGRFTISRDNSKNTLYLQMNSLRAEDTAVYYCASDLGAGPYYYGMDVWGQGTTVTVSS
VL: QSVLTQPPSASGTPGQRVTISCSGSSSNIKFNSVNWYQQLPGTAPKLLIYSNNQRPSGVPDRFSGSKSGTSASLAISGLQSEDEADYYCASWDDYVRGTMFGGGTKLTVL
notes: also called anti-PD-1 antibody clone D4 (human IgG4)

- EC50 [7]: 0.189 nM
B14: H4 (antibody, IgG4, V domains shown)
VH: QVQLVESGGGVVQPGRSLRLSCAASGFTFSSYGMHWVRQAPGKGLEWVAVISYDGSNKYYADSVKGRFTISRDNSKNTLYLQMNSLRAEDTAVYYCASDLGSGYYLYGMDVWGQGTTVTVSS
VL: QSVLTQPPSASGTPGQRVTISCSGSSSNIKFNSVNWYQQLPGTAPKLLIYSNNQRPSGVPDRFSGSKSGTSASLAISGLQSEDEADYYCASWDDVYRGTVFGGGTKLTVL
notes: also called anti-PD-1 antibody clone H4 (human IgG4)
